B1: 4QI-TBA-E:TBA-C9 duplex (dsDNA)
DNA 1: GGTTGGTGTGGTTGGT
DNA 2: ACACCAACC
modifications: 5'-4QI on aptamer strand; extra 3' dT

How the values were obtained:
thrombin [1] = biological target: T1, thrombin (Bos taurus, UniProt P00735;P00735 P00735:318-366,P00735:367-625); assay: FP; K+ phosphate buffer pH 7.0; duplex to G4 exchange, 36% fluorescence increase; conditions: tags: bovine thrombin dry powder, Sigma Aldrich; label: 5'-4QI; partial duplex with 9-mer complement, 3' ssDNA
thrombin [2] = biological target: T1, thrombin; assay: FP; K+ phosphate buffer pH 7.0, 20 C; Table 6 lists 1.5±0.3 uM; conditions: tags: bovine thrombin dry powder, Sigma Aldrich; label: 5'-4QI; antiparallel G4

Row | Binder | Kd (thrombin [1]) [µM] | Kd (thrombin [2]) [µM]
1 | B1 | 1.3 | –
2 | GGTTGGTGTGGTTGGT (structured_DNA, 5'-4QI merocyanine end-label; extra 3' dT) [4QI-TBA-E] | – | 1.1
